2 molecules from publication PMC11869522, “Competitive displacement of lipoprotein lipase from heparan sulfate is orchestrated by a disordered acidic cluster in GPIHBP1” (Journal of Lipid Research, 2025) can be followed below.

Data set [1] relates to bLPL. Kind of data set: PCSK3 cleavage of LPL (SDS-PAGE densitometry). In kind it is biochemical, bovine. The conditions noted are these: 20 μM bLPL, 25°C; for protection of LPL against ANGPTL4-induced cleavage by PCSK3 / protection of LPL against PCSK3 cleavage triggered by spontaneous unfolding: 0–240 min; for protection of LPL against PCSK3 cleavage triggered by spontaneous unfolding: 4 units PCSK3, without ANGPTL4, 25 μM GPIHBP1 variant. How it is done:
To determine if charge-variants of GPIHBP1 confer distinct resistance to ANGPTL4-facilitated cleavage of LPL after Arg^324 by PCSK3 ([33]), we incubated purified bLPL (20 μM) with PCSK3 (4 units) for 0–240 min, either alone or in the presence of ANGPTL4 (2 μM) and/or GPIHBP1 (25 μM) at 25°C in 10 mM 2-(N-morpholino) ethane sulfonic acid (MES), 150 mM NaCl, 1 mM CaCl2, pH 7.0. We tested four different GPIHBP1 variants: GPIHBP1^1–131, GPIHBP1^Cluster1-neutral, GPIHBP1^Cluster2-neutral, and GPIHBP1^34–131 (LU domain only). PCSK3 cleavage was stopped by boiling in SDS-PAGE sample buffer (reduced and alkylated) and the degree of cleavage was assessed by SDS-PAGE using 12% Bis-Tris SDS-PAGE gels followed by densitometric scanning of the corresponding Coomassie blue–stained SDS-polyacrylamide gels.
Secretion of LPL by adipocytes is modulated in an autocrine manner by ANGPTL4. […] In the presence of endogenous ANGPTL4, a significant fraction of LPL was cleaved by PCSK3 in the trans-Golgi compartment. […] The presence of GPIHBP1 dramatically delayed PCSK3 cleavage of LPL ([33]). To assess the role of the acidic tail in GPIHBP1 on this delay, we incubated 20 μM bLPL with 4 units of PCSK3 either alone or in the presence of 2 μM ANGPTL4. We observed that the presence of sub-stoichiometric amounts of ANGPTL4 reduced the half-life of intact bLPL from 110 min to less than 5 min (Fig. 5A). […] Our results emphasized the essential role of GPIHBP1’s acidic tail in protecting LPL against ANGPTL4-induced cleavage by PCSK3.
Fig. 5 GPIHBP1 reduces ANGPTL4-facillitated PSCK3 cleavage of LPL. 20 μM bLPL was incubated with 4 units of PSCK3 for 0–240 min at 25°C and the extent of LPL cleavage after Arg^324 was assessed by densitometric scanning of Coomassie–blue stained polyacrylamide after SDS-PAGE of reduced and alkylated samples. A: PSCK3 cleavage of LPL is accelerated by the presence of 2 μM ANGPTL4—present at sub-stoichiometric amounts compared to bLPL (20 μM). 25 μM intact GPIHBP1, but not GPIHBP1^34–131 mitigates PSCK3 cleavage of LPL. B: Both GPIHBP1^Cluster1-neutral and GPIHBP1^Cluster2-neutral rescue LPL from cleavage by PSCK3 in the absence of ANGPTL4 and both are more efficient than GPIHBP1^34–131. C: in the presence of 2 μM ANGPTL4, 25 μM GPIHBP1^Cluster1-neutral protects LPL from PSCK3 cleavage more efficiently than the GPIHBP1^Cluster2-neutral, which indicates a more prominent role of acidic cluster 2 in protecting LPL from ANGPTL4-catalyzed unfolding and subsequent PSCK3 cleavage. Shown are the mean values (±SEM) for intact LPL relative to that present at time 0 min for 3–5 independent time-course experiments. Some curves appear in multiple panels to increase clarity.

The subject of data set [2] is human LPL. Briefly: Native PAGE binding to human LPL. The following applies: 4 µM LPL with 18 µM GPIHBP1, 30 min on ice; Coomassie staining. Here is the method: Distinct impacts of disordered acidic clusters in GPIHBP1
To confirm interactions between puri fi ed human GPIHBP11–131, G P IH B P 1 Cluster1-neutral, or GPIHBP1 Cluster2-neutral with human, mouse, and bovine LPL, these protein pairs were incubated for 30 min on ice (4 µM LPL with 18 µM GPIHBP1) before they were analyzed by native PAGE. As th ese concentrations were well above t he K D of 0.2 nM for the wildtype LPL•GPIHBP1 interaction, LPL is saturated with GPIHBP1 in these experiments (1). […]
spect r a for the purified GPIHBP1 variants wer e r ecor ded at 25°C in Helman cuvettes (path- length of 1 mm) with a scan rate of 50 nm/ min c ove r i ng the range of 190- 250 nm, averaging three scans for each protein. Spectra for the pr ote i ns were compared after converting to molar ellipticity using the following equation, […] where, Mw is the molecular weight of the protein, c is the protein concentration in g/l, l is the pat h-length of the cuvette, Nr number of amino acid residues in the protein.
Figure S1 : Binding of GPIHBP1 charge mutants to LPL as assessed by Native PAGE. The electrophoretic mobility of GPIHBP1 variants alone or in presence of purified human LPL ( A), b ovine LPL (B), and murine LPL (C) was assessed by native PAGE followed by Coomassie blue staining. […]

The mark [3] stands for this setting: 4 units PCSK3, 2 μM ANGPTL4, 25 μM GPIHBP1 variant.

B1: GPIHBP1^Cluster2-neutral: GPIHBP1 mutant with all Glu/Asp replaced by Gln/Asn at residues 19–30 (protein)
chain: QTQQEEEEEDEDHGPDDYNQQNQNQVQQQQTNRLPGGGSRVLLRCYTCKSLPRDERCNLTQNCSHGQTCTTLIAHGNTESGLLTTHSTWCTDSCQPITKTVEGTQVTMTCCQSSLCNVPPWQSSRVQDPTG
modifications: Tyr18 sulfation absent; one bi-antennary N-linked glycosylation; left off: uPAR domain III, N-terminal, cleaved
As to B1, the “protection of LPL against ANGPTL4-induced cleavage by PCSK3” value in data set [1] (setting [3]) was “marginal protection”. Further, the “protection of LPL against PCSK3 cleavage triggered by spontaneous unfolding” value in data set [1] is on record as “prevented that cleavage completely”. The “binding to hLPL as judged by native PAGE” value in data set [2] is recorded as “bound”.

B2: GPIHBP1^Cluster1-neutral: GPIHBP1 mutant with all Glu/Asp replaced by Gln/Asn at residues 1–17 (protein)
chain: QTQQQQQQQNQNHGPNNYDEEDEDEVEEEETNRLPGGGSRVLLRCYTCKSLPRDERCNLTQNCSHGQTCTTLIAHGNTESGLLTTHSTWCTDSCQPITKTVEGTQVTMTCCQSSLCNVPPWQSSRVQDPTG
modifications: Tyr18 sulfation present in less than 40%; one bi-antennary N-linked glycosylation; left off: uPAR domain III, N-terminal, cleaved
For B2, the “protection of LPL against ANGPTL4-induced cleavage by PCSK3” value in data set [1] (setting [3]) was “significant protection”. Further, in data set [1] (4 units PCSK3, 2 μM ANGPTL4, 25 μM GPIHBP1 variant, pH 7.0, less than 5 min without GPIHBP1), the “half-life of intact LPL” value came to 25 min. Further, the “protection of LPL against PCSK3 cleavage triggered by spontaneous unfolding” value in data set [1] is listed as “prevented that cleavage completely”. Also, the “binding to hLPL as judged by native PAGE” value in data set [2] was “bound”.
